Data taken from PMC2811157.

Molecular target: GST-tagged Polo-box domain (PBD) of Plk1 (UniProt P53350)
Assay: GST pull-down with anti-GFP immunoblot, band quantification
Conditions: mitotic lysates of U2OS cell lines; immobilized GST-Plk1-PBD; input levels set to 100%; parent: est. 56; read off a plot

Sequence of UniProt P53350 (P53350 326-603): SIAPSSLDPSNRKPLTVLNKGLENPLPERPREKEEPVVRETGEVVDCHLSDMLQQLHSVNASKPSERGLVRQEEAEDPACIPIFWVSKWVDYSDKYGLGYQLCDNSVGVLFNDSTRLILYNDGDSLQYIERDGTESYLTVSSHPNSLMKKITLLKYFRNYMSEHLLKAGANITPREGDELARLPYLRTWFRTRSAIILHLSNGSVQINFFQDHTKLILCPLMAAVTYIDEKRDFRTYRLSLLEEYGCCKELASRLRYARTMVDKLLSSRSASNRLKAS

Substance	response
GFP-tagged murine 53BP1, wild type (from UniProt P70399) S376A	10 % of input
GFP-tagged murine 53BP1, wild type (from UniProt P70399) S1620A	78 % of input
